Test results published in paper PMC9486129 (2022).
Where no end group is shown, it is not given here. [ ]: non-standard residue; d: D form. pY = N[C@@H](Cc1ccc(OP(=O)(O)O)cc1)C(=O)O

T1: ZAP-70 tSH2 WT (1–256)
T1 chain: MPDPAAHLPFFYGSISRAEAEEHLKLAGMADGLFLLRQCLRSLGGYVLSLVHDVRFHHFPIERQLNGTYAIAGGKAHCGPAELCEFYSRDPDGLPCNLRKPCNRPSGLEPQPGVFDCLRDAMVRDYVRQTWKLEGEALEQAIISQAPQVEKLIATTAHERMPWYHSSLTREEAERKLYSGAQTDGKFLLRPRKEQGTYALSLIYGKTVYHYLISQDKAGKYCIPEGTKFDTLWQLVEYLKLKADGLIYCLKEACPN


Columns and labels:
ITAM-Y2P-ζ3 ITAM3 = ITAM-Y2P-ζ3 ITAM3 (Homo sapiens, UniProt P20963, doubly phosphorylated ITAM)
Sequence of ITAM-Y2P-ζ3 ITAM3 (P20963 128-162): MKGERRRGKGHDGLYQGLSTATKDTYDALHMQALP

ZAP-70 tSH2 WT (1–256) [1] = target: T1, ZAP-70 tSH2 WT (1–256); assay: ITC; Kd2, second site
ZAP-70 tSH2 WT (1–256) [2] = target: T1, ZAP-70 tSH2 WT (1–256); assay: Kd1, first site (intrinsic fluorescence titration)

Binder | Kd (ITAM-Y2P-ζ3 ITAM3) | Kd (ZAP-70 tSH2 WT (1–256) [1]) | Kd (ZAP-70 tSH2 WT (1–256) [2])
ZAP-70 C-SH2 (protein) WYHSSLTREEAERKLYSGAQTDGKFLLRPRKEQGTYALSLIYGKTVYHYLISQDKAGKYCIPEGTKFDTLWQLVEYLKLKADGLIYCLKEAC | 6.8 nM | – | –
NQL[pY]NELNLGRRAE[pY]DVLD [ITAM-Y2P-ζ1 E13A] | – | 9800 nM | 4.5 nM
